No end group written: not given here.

We go through 1 molecule from patent US20230035748A1.

Test in all cases: pull-down from MDA-MB-231 cell lysate with CT20p-biotin and streptavidin-agarose beads, excised gel band, mass spectrometry
For assay [1], the target named is Coatomer subunit beta (human) (UniProt P35606).
Assay [2] has as its target Coatomer subunit gamma-1 (human) (UniProt Q9Y678).
A further assay concerns the target Reticulocalbin-2 (human) (UniProt Q14257).
In assay [3] the target is T-complex protein 1 subunit eta (human) (UniProt Q99832).
The target of assay [4] is Signal transducer and activator of transcription 1-alpha/beta (human) (UniProt P42224).
Chain of UniProt P42224 (P42224 2-750 limits assumed): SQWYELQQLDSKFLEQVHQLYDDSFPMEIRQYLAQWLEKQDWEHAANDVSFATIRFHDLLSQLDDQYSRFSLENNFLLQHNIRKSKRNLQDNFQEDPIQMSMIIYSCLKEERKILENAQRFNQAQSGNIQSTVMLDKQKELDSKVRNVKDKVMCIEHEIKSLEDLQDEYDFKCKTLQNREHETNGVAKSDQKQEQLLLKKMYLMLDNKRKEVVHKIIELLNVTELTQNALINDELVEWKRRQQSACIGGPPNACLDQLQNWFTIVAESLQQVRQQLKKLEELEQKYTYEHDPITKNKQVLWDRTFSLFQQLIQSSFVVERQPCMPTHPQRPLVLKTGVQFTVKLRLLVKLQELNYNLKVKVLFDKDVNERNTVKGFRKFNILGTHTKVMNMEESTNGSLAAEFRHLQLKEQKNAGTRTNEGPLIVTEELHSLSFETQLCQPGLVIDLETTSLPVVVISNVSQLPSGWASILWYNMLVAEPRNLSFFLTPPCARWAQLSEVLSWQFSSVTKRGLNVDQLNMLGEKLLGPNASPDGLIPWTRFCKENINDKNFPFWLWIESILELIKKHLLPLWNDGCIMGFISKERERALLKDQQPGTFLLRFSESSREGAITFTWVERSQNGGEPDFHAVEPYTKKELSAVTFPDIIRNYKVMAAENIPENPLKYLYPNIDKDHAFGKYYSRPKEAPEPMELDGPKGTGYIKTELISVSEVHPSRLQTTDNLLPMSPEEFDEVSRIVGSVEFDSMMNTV
Assay [5] has as its target Signal transducer and activator of transcription 3 (human) (UniProt P40763).
Chain of UniProt P40763 (P40763 2-770 limits assumed): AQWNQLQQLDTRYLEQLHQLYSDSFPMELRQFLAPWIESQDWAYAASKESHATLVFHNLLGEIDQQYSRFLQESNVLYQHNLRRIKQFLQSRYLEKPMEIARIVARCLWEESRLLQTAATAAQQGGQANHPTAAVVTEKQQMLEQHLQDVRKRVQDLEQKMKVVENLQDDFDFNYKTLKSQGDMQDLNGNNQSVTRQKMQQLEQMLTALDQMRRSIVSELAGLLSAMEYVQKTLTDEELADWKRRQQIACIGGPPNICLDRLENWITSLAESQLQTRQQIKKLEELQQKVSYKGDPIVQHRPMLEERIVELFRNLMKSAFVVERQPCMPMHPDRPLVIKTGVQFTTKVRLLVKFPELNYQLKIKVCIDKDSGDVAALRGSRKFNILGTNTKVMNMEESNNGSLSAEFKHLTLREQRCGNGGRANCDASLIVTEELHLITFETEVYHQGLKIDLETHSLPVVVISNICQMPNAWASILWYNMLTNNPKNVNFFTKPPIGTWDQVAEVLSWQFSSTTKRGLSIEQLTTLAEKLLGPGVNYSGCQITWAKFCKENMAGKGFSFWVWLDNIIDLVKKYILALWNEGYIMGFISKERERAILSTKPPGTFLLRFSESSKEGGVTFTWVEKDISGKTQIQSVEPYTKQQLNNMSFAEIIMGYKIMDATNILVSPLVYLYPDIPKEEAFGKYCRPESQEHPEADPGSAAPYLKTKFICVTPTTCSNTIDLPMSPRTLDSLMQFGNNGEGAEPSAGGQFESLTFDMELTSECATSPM
In assay [6] the target is Hsp90 co-chaperone Cdc37 (human) (UniProt Q16543).
The target in assay [7] is T-complex protein 1 subunit alpha (human) (UniProt P17987).
Chain of UniProt P17987 (P17987 whole entry, one chain of several): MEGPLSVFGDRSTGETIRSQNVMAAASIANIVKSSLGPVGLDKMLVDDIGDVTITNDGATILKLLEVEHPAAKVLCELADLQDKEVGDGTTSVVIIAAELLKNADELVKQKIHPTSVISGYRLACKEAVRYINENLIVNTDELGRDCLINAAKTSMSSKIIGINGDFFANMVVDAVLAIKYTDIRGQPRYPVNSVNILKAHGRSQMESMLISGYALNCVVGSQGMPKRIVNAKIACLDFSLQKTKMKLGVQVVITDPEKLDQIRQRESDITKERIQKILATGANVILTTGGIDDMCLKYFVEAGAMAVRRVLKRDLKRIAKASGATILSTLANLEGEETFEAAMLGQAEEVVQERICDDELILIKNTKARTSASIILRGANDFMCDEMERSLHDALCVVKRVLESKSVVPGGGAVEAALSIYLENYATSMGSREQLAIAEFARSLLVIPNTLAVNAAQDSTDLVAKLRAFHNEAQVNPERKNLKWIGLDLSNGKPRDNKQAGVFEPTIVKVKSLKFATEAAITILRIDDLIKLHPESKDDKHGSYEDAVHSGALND
Assay [8] deals with T-complex protein 1 subunit epsilon (human) (UniProt P48643).
Chain of UniProt P48643 (P48643 2-541 limits assumed, one chain of several): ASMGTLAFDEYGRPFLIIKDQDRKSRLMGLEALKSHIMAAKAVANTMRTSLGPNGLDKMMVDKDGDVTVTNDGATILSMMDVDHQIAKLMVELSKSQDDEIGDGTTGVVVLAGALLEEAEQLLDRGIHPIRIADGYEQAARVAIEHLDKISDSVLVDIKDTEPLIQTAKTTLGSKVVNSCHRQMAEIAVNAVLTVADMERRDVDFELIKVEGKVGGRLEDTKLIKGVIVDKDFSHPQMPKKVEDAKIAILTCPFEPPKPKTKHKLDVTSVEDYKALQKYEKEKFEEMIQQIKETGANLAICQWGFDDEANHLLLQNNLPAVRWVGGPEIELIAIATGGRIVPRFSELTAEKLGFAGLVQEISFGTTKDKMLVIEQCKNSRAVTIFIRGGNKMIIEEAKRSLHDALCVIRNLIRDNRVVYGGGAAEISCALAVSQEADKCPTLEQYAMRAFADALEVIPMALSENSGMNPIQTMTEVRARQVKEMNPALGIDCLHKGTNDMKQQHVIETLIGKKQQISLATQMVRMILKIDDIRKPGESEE
Assay [9] concerns the target T-complex protein 1 subunit gamma (human) (UniProt P49368).
Chain of UniProt P49368 (P49368 whole entry, one chain of several): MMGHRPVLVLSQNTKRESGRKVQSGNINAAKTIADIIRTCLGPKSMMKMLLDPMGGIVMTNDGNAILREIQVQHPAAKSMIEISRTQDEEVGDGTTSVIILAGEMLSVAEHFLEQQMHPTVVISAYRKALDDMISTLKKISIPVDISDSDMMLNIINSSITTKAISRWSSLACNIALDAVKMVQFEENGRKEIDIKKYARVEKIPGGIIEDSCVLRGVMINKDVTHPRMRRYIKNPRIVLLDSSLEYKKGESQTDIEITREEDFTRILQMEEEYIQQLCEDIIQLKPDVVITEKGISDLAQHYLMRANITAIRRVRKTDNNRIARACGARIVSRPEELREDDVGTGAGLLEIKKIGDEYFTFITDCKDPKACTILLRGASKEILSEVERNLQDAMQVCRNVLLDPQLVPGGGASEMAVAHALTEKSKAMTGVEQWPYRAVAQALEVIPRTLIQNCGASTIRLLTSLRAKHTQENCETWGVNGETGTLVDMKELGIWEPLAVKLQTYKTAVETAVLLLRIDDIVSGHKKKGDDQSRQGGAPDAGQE
Assay [10] has as its target T-complex protein 1 subunit zeta (human) (UniProt P40227).
The target of assay [11] is T-complex protein 1 subunit delta (human) (UniProt P50991).
Assay [12] deals with Cellular tumor antigen p53 (human) (UniProt P04637).
Another assay has as its target Huntingtin (human) (UniProt P42858).

Chain of UniProt P35606 (P35606 2-906 limits assumed): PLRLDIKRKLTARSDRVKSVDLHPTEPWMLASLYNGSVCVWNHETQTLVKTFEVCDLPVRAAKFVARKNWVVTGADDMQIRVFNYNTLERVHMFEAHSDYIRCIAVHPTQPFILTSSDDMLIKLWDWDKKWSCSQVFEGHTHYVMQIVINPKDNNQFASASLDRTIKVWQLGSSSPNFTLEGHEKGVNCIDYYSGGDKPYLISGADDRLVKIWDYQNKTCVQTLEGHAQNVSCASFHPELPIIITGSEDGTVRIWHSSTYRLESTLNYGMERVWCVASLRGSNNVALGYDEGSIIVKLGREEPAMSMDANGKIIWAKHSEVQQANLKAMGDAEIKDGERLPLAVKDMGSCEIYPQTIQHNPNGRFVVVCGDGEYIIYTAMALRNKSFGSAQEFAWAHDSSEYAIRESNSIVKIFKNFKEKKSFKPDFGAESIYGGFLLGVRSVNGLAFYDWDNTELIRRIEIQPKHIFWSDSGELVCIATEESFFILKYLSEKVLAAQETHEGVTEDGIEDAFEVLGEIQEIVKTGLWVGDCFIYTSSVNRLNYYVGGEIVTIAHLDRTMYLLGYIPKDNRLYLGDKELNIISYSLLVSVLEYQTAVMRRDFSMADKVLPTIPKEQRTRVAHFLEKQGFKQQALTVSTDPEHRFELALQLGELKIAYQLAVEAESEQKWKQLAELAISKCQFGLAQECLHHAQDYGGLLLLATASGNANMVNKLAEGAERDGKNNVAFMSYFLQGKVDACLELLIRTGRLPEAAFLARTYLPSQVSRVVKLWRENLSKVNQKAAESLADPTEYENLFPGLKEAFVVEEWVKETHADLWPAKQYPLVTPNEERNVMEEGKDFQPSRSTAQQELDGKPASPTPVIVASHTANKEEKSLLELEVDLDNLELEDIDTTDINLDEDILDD
Chain of UniProt Q9Y678 (Q9Y678 whole entry): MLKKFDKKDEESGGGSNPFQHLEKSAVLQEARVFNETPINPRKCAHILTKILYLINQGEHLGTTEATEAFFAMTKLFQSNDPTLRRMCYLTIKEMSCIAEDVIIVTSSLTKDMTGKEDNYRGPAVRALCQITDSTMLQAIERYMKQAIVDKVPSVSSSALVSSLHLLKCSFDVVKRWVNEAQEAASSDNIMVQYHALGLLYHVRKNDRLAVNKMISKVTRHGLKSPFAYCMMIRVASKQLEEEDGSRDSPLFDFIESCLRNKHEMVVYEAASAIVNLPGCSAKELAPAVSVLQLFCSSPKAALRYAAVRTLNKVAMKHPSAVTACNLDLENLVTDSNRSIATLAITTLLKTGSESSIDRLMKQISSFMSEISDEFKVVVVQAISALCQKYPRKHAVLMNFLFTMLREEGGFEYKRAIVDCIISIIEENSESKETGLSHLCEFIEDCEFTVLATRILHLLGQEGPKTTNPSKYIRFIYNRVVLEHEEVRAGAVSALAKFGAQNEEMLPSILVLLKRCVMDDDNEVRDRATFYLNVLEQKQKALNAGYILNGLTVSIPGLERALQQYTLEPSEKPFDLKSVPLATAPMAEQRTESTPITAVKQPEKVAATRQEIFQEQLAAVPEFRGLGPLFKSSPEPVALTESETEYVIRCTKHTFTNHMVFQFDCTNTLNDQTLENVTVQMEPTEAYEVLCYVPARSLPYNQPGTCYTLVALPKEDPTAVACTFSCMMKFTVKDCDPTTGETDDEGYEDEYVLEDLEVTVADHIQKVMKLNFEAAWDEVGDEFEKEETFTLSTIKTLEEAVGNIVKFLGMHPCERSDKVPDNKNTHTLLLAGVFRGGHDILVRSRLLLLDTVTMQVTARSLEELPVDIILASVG

On to VTIFVAGVLTASLTIWKKMG (also: biotin tag, site not given here) [biotin-tagged CT20p], for which the No. of unique peptides turned out to be 6 peptides in assay [1]; 6 peptides in [2]; 10 peptides in the assay with Reticulocalbin-2 (human); 3 peptides in assay [3]; 7 peptides in [4]; 2 peptides in assay [5]. In addition, the No. of unique peptides was determined as 2 peptides in assay [6]; 2 peptides in [7]; 2 peptides in assay [8]; 3 peptides in [9]; 2 peptides in [10]; 4 peptides in [11]. Further, the No. of unique peptides (in [12]; with Huntingtin (human)) was 1 peptides throughout.
